Experiment [1] addresses T cell receptor of the I-A^d restricted OVA specific T cell hybridoma 8DO51.15. The experiment is described as follows: flow cytometry; biotinylated MHC in liposomes, no peptide. A general note: In flow cytometry, cells or beads pass a laser one at a time.
For experiment [2] the target is unchanged. The experiment is described as follows: flow cytometry; correct restriction element, irrelevant peptide, on 8D051.15 cells.
Experiment [3] has as its target T cell receptors of T cell populations derived from Iα52-supplemented FTOC and expanded with Hi15.
Experiment [4] addresses T cell receptor of the I-A^d restricted OVA specific T cell hybridoma 8DO51.15. The experiment is described as follows: flow cytometry; liposome:MHC:b-peptide with streptavidin-FITC on hybridoma cells, final MHC concentration 66 ug/ml.
The target of experiment [5] is T cell receptors of CD4+ T cells from regional draining lymph nodes of BALB/c mice. The experiment is described as follows: flow cytometry T cell capture; lymph node cells of IFA-only immunized BALB/c mice; polyclonal.
For experiment [6], the target named is T cell receptors of T cell populations derived from Iα52-supplemented FTOC and expanded with Hi15. The experiment is described as follows: flow cytometry; cells from Iα52-supplemented FTOC after two weeks with 10 ug/ml Hi15; polyclonal.
The target in experiment [7] is T cell receptors of CD4+ cells from BALB/c fetal thymic organ culture (FTOC). The experiment is described as follows: flow cytometry T cell capture; FTOC alone without added peptide; polyclonal thymocytes.
Experiment [8] has the same target. The experiment in a line: flow cytometry T cell capture; FTOC in the presence of 10^-2 mM Iα52; polyclonal thymocytes.
In experiment [9] the target is T cell receptors of CD4+ T cells from regional draining lymph nodes of BALB/c mice. The experiment in a line: flow cytometry T cell capture; lymph node cells of Iα52-immunized BALB/c mice; polyclonal.

B1: biotinylated I-A^d in liposomes without peptide (protein, mouse)
MHC II alpha: EDDIEADHVGFYGTTVYQSPGDIGQYTHEFDGDELFYVDLDKKKTVWRLPEFGQLILFEPQGGLQNIAAEKHNLGILTKRSNFTPATNEAPQATVFPKSPVLLGQPNTLICFVDNIFPPVINITWLRNSKSVTDGVYETSFLVNRDHSFHKLSYLTFIPSDDDIYDCKVEHWGLEEPVLKHWEPEIPAPMSELTE
MHC II beta: GNSERHFVVQFKGECYYTNGTQRIRLVTRYIYNREEYVRYDSDVGEYRAVTELGRPDAEYWNSQPEILERTRAEVDTACRHNYEGPETSTSLRRLEQPNVAISLSRTEALNHHNTLVCSVTDFYPAKIKVRWFRNGQEETVGVSSTQLIRNGDWTFQVLVMLEMTPHQGEVYTCHVEHPSLKSPITVEWRAQSESARSK
In experiment [1], B1 returned a % of cells bound of 6.9%.

B2: liposome:I-A^d:biotinylated Hi15 peptide complex (peptide-MHC)
MHC II alpha: EDDIEADHVGFYGTTVYQSPGDIGQYTHEFDGDELFYVDLDKKKTVWRLPEFGQLILFEPQGGLQNIAAEKHNLGILTKRSNFTPATNEAPQATVFPKSPVLLGQPNTLICFVDNIFPPVINITWLRNSKSVTDGVYETSFLVNRDHSFHKLSYLTFIPSDDDIYDCKVEHWGLEEPVLKHWEPEIPAPMSELTE
MHC II beta: GNSERHFVVQFKGECYYTNGTQRIRLVTRYIYNREEYVRYDSDVGEYRAVTELGRPDAEYWNSQPEILERTRAEVDTACRHNYEGPETSTSLRRLEQPNVAISLSRTEALNHHNTLVCSVTDFYPAKIKVRWFRNGQEETVGVSSTQLIRNGDWTFQVLVMLEMTPHQGEVYTCHVEHPSLKSPITVEWRAQSESARSK
peptide: TSFPMRGDLAKREPDK
With B2, in experiment [2], the % positive cells is 8.7%. In experiment [3], the % of CD4+ cells positive for both peptides was determined as 31.1% and the % of cells positive is 52%.

B3: liposome:I-A^d:biotinylated OVA^323-336 peptide complex (peptide-MHC, mouse)
MHC II alpha: EDDIEADHVGFYGTTVYQSPGDIGQYTHEFDGDELFYVDLDKKKTVWRLPEFGQLILFEPQGGLQNIAAEKHNLGILTKRSNFTPATNEAPQATVFPKSPVLLGQPNTLICFVDNIFPPVINITWLRNSKSVTDGVYETSFLVNRDHSFHKLSYLTFIPSDDDIYDCKVEHWGLEEPVLKHWEPEIPAPMSELTE
MHC II beta: GNSERHFVVQFKGECYYTNGTQRIRLVTRYIYNREEYVRYDSDVGEYRAVTELGRPDAEYWNSQPEILERTRAEVDTACRHNYEGPETSTSLRRLEQPNVAISLSRTEALNHHNTLVCSVTDFYPAKIKVRWFRNGQEETVGVSSTQLIRNGDWTFQVLVMLEMTPHQGEVYTCHVEHPSLKSPITVEWRAQSESARSK
peptide: ISQAVHAAHAEINE
In [4], B3 displayed a % of cells stained positive of 87.2%.

B4: liposome:I-A^d:biotinylated Iα52 peptide complex (peptide-MHC, mouse)
MHC II alpha: EDDIEADHVGFYGTTVYQSPGDIGQYTHEFDGDELFYVDLDKKKTVWRLPEFGQLILFEPQGGLQNIAAEKHNLGILTKRSNFTPATNEAPQATVFPKSPVLLGQPNTLICFVDNIFPPVINITWLRNSKSVTDGVYETSFLVNRDHSFHKLSYLTFIPSDDDIYDCKVEHWGLEEPVLKHWEPEIPAPMSELTE
MHC II beta: GNSERHFVVQFKGECYYTNGTQRIRLVTRYIYNREEYVRYDSDVGEYRAVTELGRPDAEYWNSQPEILERTRAEVDTACRHNYEGPETSTSLRRLEQPNVAISLSRTEALNHHNTLVCSVTDFYPAKIKVRWFRNGQEETVGVSSTQLIRNGDWTFQVLVMLEMTPHQGEVYTCHVEHPSLKSPITVEWRAQSESARSK
peptide: ASFEAQGALANIAVDKA
B4: the figures for the % of CD4+ T cells specific in experiment [5] and in experiment [9] were 0.7% and 5.4%, respectively. In experiment [6], this molecule gave a % of cells bound of 52.8%. Moreover, the results for the % of CD4+ cells bound in experiment [7] and in [8] were 20.7% and 50.9%, respectively. Further, the % of CD4+ cells positive for both peptides in experiment [3] came out at 31.1%.

The values above are taken from patent publication US20050208120A1.
